Laboratory results reported in PMC8791620 (Science Advances, 2022).

T1: Trs33 (subunit of core TRAPP/TRAPPI in TRAPPII) (S. cerevisiae, UniProt Q99394 1-268)
T1 sequence (looked up): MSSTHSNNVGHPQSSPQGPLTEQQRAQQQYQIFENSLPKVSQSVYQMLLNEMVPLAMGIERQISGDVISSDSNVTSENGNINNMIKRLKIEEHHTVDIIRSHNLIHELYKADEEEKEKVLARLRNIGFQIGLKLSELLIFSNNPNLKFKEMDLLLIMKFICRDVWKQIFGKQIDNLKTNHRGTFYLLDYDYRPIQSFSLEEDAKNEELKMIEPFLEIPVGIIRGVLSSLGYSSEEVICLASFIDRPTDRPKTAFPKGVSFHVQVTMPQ

T2: Trs31 (subunit of core TRAPP/TRAPPI in TRAPPII) (S. cerevisiae, UniProt Q03337 1-283)
T2 sequence (looked up): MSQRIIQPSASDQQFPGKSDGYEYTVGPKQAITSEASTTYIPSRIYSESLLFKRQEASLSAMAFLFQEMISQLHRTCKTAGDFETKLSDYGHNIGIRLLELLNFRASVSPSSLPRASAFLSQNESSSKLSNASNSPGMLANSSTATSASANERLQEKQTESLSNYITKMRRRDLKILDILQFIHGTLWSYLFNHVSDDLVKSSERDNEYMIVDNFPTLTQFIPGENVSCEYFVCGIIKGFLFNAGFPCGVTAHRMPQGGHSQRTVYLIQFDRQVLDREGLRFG

T3: Trs120 (3xFLAG-tagged, subunit of TRAPPII) (S. cerevisiae, UniProt Q04183 1-1289)
T3 sequence: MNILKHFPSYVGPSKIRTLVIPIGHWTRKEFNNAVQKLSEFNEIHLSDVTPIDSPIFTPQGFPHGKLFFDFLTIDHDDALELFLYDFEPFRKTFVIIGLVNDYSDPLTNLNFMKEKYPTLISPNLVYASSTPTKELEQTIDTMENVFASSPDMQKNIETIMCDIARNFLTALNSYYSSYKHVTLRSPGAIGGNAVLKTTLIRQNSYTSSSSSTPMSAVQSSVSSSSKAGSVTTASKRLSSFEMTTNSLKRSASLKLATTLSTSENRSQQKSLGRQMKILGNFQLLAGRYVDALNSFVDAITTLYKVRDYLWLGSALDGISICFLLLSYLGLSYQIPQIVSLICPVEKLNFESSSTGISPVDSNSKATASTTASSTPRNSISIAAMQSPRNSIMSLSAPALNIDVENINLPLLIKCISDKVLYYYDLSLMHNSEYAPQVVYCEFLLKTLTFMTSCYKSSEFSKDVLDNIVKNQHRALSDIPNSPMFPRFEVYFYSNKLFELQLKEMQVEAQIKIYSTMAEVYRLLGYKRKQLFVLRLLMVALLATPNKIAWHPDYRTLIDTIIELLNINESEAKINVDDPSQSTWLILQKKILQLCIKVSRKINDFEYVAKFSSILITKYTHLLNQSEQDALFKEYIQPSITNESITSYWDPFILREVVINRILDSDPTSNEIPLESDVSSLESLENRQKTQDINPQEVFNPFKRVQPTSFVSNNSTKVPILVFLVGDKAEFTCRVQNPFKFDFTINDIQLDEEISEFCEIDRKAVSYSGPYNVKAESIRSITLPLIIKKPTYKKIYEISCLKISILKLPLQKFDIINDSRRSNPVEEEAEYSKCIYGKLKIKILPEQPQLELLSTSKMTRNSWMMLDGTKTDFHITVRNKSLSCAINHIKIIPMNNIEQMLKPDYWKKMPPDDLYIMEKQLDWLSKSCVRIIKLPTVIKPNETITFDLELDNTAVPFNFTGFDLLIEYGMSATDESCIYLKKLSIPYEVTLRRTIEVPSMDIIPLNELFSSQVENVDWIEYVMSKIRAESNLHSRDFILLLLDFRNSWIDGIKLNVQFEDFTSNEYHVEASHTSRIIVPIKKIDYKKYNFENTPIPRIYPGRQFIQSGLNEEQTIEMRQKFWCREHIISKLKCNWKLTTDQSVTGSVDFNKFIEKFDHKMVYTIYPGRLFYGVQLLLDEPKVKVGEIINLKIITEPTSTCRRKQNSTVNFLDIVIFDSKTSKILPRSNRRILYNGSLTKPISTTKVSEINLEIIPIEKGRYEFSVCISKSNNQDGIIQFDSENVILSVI

T4: Trs23 (subunit of core TRAPP/TRAPPI in TRAPPII) (S. cerevisiae, UniProt Q03784 1-219)
T4 sequence (looked up): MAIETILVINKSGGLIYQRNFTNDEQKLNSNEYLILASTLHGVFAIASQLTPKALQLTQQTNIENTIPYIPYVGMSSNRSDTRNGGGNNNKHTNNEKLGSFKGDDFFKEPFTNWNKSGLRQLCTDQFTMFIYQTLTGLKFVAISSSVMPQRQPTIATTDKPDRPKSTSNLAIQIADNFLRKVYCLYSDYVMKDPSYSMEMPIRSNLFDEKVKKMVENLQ

B1: Tca17 (subunit of TRAPPII) (natural protein, S. cerevisiae, UniProt P32613 1-152, looked up)
chain: MSLRPCFVSLIDESDKPILIYVPNEAENEMNDVLKYNVLSNISLDYFESALVEWHSLDSKPLLKSIFQLEGVSVFAMLIKQTGLKIVIGFEQKSLSGADDEFEAINQIFETVRKIYIRVKCNPLLVSGDEKSIIKSLERKFDELFISTEVEL
B2: Trs20 (subunit of core TRAPP/TRAPPI in TRAPPII) (natural protein, S. cerevisiae, UniProt P38334 1-175, looked up)
chain: MPQYFAIIGKKDNPVYEIEFTNAENPQGFPQDLKELNPFILHASLDIVEDLQWQINPTSQLNGNGGNGSNGGGGFLRSRAVNNTDNCYLGKVDHFYGLAITAYISYSGMKFVMIHGNSANSSVVIDDNNMRSFYQEVHELYVKTLMNPFYKITDPIRSPAFDSRVRTLARKHLSK
B3: Trs130 (subunit of TRAPPII) (natural protein, S. cerevisiae, UniProt Q03660 1-1102, looked up)
chain: MDKEIYCGSVPVSYFDPFDLFESLRPEFQQILPLDNIHWKAFDGTVRTVNRLPIELIPEGRGEADKSNDEQPFIRFLIVNCISIDQYRAKVRPLVRQWLPNLESVSSSTGEKMIYKPIILLYANSEVVDSNLFKSVSLMEKFGKDFPHVQTLEVRSVYRSPKERQEFWNQFSQKIKASVLSIFQKRLTHLQHSLANLQKGNNFEEQLLTREKLYELYVVFNILEDASLELQKIKKEILRRNMNMPDGKLQVPFESSSKSDESLGSIIIEGTLDKFQLHKYFFIRRLRLLKLEDQTLTAFVGAFQLIKNFIESISIEYRKSVRLLEFKHYFITSMLSYFEFENVSNPLLCEIKAELLMLKRDNWVQGVMATSGYRLMDKNYPNSDVKYKFDLLKETFVDETVFQENFLTLTKEILSLFNKCEGKRQRIVDILSIEIGLLYYQGKKYEEAVSLFLSCYEYYTQTNWNSIGLKILQVFIDSLSHCPKLDVLQIDGESVSASAVLTNAFLNILKLCKDNDSKEIWWKKFMDLQMKNNIHLMYPLDGLFEVTLNSKVHLARANVSAIEVNLKSYGFPEDISTKTMRLSLKNMGGDVIVFGASDFLLKKGENKLILECRDIMYGEFSLLSFEIIVEGITFVKEFPENQDEFIVVPEIYCKESTKVLVKQAHNLNLGEYALELKSVQSDALESLQVEVEVQKNIGNMKNLPVSFSMDEIQARKRYNTPFENVRLEYYLLDQITAFDLIIKTSFTKKNDQGTFGETKKVRIQCYLQLSVSVEDIFKKDIFFFKFLLNSSVREEPVILYSSELSAPDTRNDYNIRGDYIATTPALITFDGNESFINCYEITANNNFDSKDIFNLKVRYNTLKEQLDCFITDAVLIEGDVEWFILFEKWKTFWELEILKKLKYDYDAFKENRIIRLLKTSIDLNKTKSKIRNLCIEKAVLDKILICLNKVSRGIAVCNTDMDEYVRNLVPKQLTVPVQLPGFEQFFHVQFEQMETSHDALHDTIATIGNSLSYTVIVENLSGQWGQDVIDDGGYIFEILSSNEWLIHGQKRCAIKEKRKEFEVHLIPLKKGYLNFPRVEITNINGKSCRVDHSNAFESILIF
B4: Trs65 (subunit of TRAPPII) (natural protein, S. cerevisiae, UniProt P32893 1-560, looked up)
chain: MECFVPLRCDLDGSNIEQLRQSHLSRKFIIFDEQLNLWLWFQGNSQENKRFVLQNMIILINEAQVTRTSTIDDYFTQVENNENLWRLKNDCCSKILFKSNVVMNNGYNNQIKFVFEYKSVDANFNNQDSLQDPQAKYTLDKYSSEEILPSFEPVYSWSSAATKSSKNTNNHLEKNNRATHRVSSKNSEVHEADVSRNPNTFTLKLQYPIFSLLNMRLRNISLKSEHCILSSLDFQTSKASEQLTKKFIYPQEHNSFLKLNFQEISYKLIDGTSQIELDPICPLKVPLTAFSYDSISATFKLVLLPKSTQPHRVKITLAYELELHPNLKLPVRTSWETEVTLKRSMPISSTSSQYSSNNNNTNHSASFNGAANNVNSGGLANLRLGGVSSSRFSLGAASTTSLVNSKLSNVKFKFINSNIKVIKGEKFTMRLQIINSSSSPLDLVVYYNNTINPIPSANNVRNSNGINNCGMNNGTIPNSPLTLENQYQLHNKYRKIAEGIILLSNDYKIPVVPPRETYFADLRFIGIMSGYYGTLSGLKVLDLNTNELIEVGNGASVLIQ
B5: Bet3 (subunit of core TRAPP/TRAPPI in TRAPPII) (natural protein, S. cerevisiae, UniProt P36149 1-193, looked up)
chain: MVSTTQSRSLKAMGEEIWKNKTEKINTELFTLTYGSIVAQLCQDYERDFNKVNDHLYSMGYNIGCRLIEDFLARTALPRCENLVKTSEVLSKCAFKIFLNITPNITNWSHNKDTFSLILDENPLADFVELPMDAMKSLWYSNILCGVLKGSLEMVQLDCDVWFVSDILRGDSQTEIKVKLNRILKDEIPIGED

Columns and labels:
Experiment in all cases: cryo-EM structure
[1] = molecular target: B3
[2] = molecular target: T1, Trs33 (subunit of core TRAPP/TRAPPI in …)
[3] = molecular target: T2, Trs31 (subunit of core TRAPP/TRAPPI in …)
[4] = molecular target: T3, Trs120 (3xFLAG-tagged, subunit of …)
[5] = molecular target: T4, Trs23 (subunit of core TRAPP/TRAPPI in …)

Binder: B1
- binding result [1]: binds
- binding result [2]: binds

Binder: B2
- binding result [3]: binds
- binding result [4]: binds

Binder: B3
- binding result [4]: binds

Binder: B4
- binding result [1]: binds
- binding result [4]: binds

Binder: B5
- binding result [3]: binds
- binding result [2]: binds
- binding result [5]: binds
